Experimental data as given in patent publication US20140120557A1 (published 2014).

Target: T1, 5C.C7 TCR (as measured by surface plasmon resonance) (mouse)
T1 construct: Kept apart from the TCR on cells because the SPR construct is not described
Experiment: SPR

Kd: 22.9 µM
t1/2: 5.77 s
B1: MCC-I-Ek (peptide-MHC)
chain 1: ANERADLIAYLKQATK
chain 2: IKEEHTIIQAEFYLLPDKRGEFMFDFDGDEIFHVDIEKSETIWRLEEFAKFASFEAQGALANIAVDKANLDVMKERSNNTPDANVAPEVTVLSRSPVNLGEPNILICFIDKFSPPVVNVTWLRNGRPVTEGVSETVFLPRDDHLFRKFHYLTFLPSTDDFYDCEVDHWGLEEPLRKHWEFEEKTLLPETKE
chain 3: VRDSRPWFLEYCKSECHFYNGTQRVRLLVRYFYNLEENLRFDSDVGEFRAVTELGRPDAENWNSQPEFLEQKRAEVDTVCRHNYEIFDNFLVPRRVEPTVTVYPTKTQPLEHHNLLVCSVSDFYPGNIEVRWFRNGKEEKTGIVSTGLVRNGDWTFQTLVMLETVPQSGEVYTCQVEHPSLTDPVTVEWKAQSTSAQNK
